Data as given in publication PMC2854237 (Insect biochemistry and molecular biology, 2010).
Like-named read-outs stand apart in the source and are kept apart here. Blank lines part the entries; values can stand above or below the molecule they belong to.

Tests used:
[1] = molecular target: D. melanogaster ovulin (Acp26Aa), endogenous in male accessory glands (D. melanogaster (endogenous in male accessory glands)); assay: non-reducing SDS-PAGE and Western blot of SDS-stable complexes
[2] = molecular target: D. melanogaster ovulin (Acp26Aa), endogenous in male accessory glands (D. melanogaster (endogenous in male accessory glands)); assay: as above; remark: listed apart in the source
[3] = molecular target: D. pseudoobscura ovulin C-terminal fragment, 6xHis-tagged (D. pseudoobscura); assay: cross-linking
[4] = molecular target: D. yakuba ovulin C-terminal fragment, 6xHis-tagged (D. yakuba); assay: cross-linking
cross-linking = molecular target: the molecule itself; assay: cross-linking
[5] = molecular target: the molecule itself; assay: non-reducing SDS-PAGE and Western blot of SDS-stable complexes

B1: D. simulans ovulin C-terminal fragment, 6xHis-tagged (domain or fragment, UniProt P33737 156-255, looked up)
chain: RQLNIDLELELEALKRKLSEMNAQNARKPTKSCKKRPSKDIAPPANQLQEVIVKNTYRNKYLTLLTQLAQKINYEIANVNNPATDVPTGKSPSEGNPSTT
stoichiometry N (cross-linking): 2

B2: D. simulans ovulin (putative ortholog), endogenous in male accessory glands (natural protein, UniProt P33737 19-255, looked up)
chain: NCDGEHQLDSSMDLKSDSTKSAVLKNVAPKNDATQAEIAKDDVALKSGKKGDYVMDIDVCTMPLDDYPINNSKSRKNSSTLPSQILTDKPNQGSNQIALKALKHRLLMEQNNNLFLRNHSVSLMNEIEARKTDIIQARQLNIDLELELEALKRKLSEMNAQNARKPTKSCKKRPSKDIAPPANQLQEVIVKNTYRNKYLTLLTQLAQKINYEIANVNNPATDVPTGKSPSEGNPSTT
stoichiometry N [5]: 2

Molecule: NVRNTYRNKYLTLLKELSQKINNEIAKVATDVPTETNPSQGNLPTL (domain or fragment, UniProt P10333 219-264, looked up) [Wild-type D. melanogaster ovulin C45 (C-terminal fragment), 6xHis- and Xpress-tagged]
stoichiometry N (cross-linking): 2

Other lines, results leading:

stoichiometry N [1]: 2 | stoichiometry N [2]: 2
Molecule: D. melanogaster ovulin (Acp26Aa), endogenous in male accessory glands (natural protein)

stoichiometry N [3]: 2
Molecule: D. pseudoobscura ovulin C-terminal fragment, 6xHis-tagged (domain or fragment)

stoichiometry N [4]: 2
Molecule: D. yakuba ovulin C-terminal fragment, 6xHis-tagged (domain or fragment)
